We go through one substance from PMC9524020.

pKd: −log10 of the molar value.

Holding throughout (assay): SPR
Experiment [1] concerns the target FcγRIIIa-158F-Afucosylated (human) (UniProt P08637).
In experiment [2] the target is FcγRIIIa-158F-CHO^WT (soluble FcγRIIIa, allotype 158F, from wild-type CHO) (human) (UniProt P08637).
Experiment [3] deals with FcγRIIIa-158F-G2FS(2-3) (human) (UniProt P08637).
The target in experiment [4] is FcγRIIIa-158F-G2FS(2-6) (human) (UniProt P08637).
Experiment [5] addresses FcγRIIIa-158F-HEK^WT (human) (UniProt P08637).
Experiment [6] deals with FcγRIIIa-158F-Hybrid (human) (UniProt P08637).
In experiment [7] the target is FcγRIIIa-158F-Monoantennae (human) (UniProt P08637).
The target of experiment [8] is FcγRIIIa-158V-Afucosylated (human).
Experiment [9] addresses FcγRIIIa-158V-CHO^WT (soluble FcγRIIIa, allotype 158V, from wild-type CHO) (human).
The target of experiment [10] is FcγRIIIa-158V-G2FS(2-3) (human).
Experiment [11] has as its target FcγRIIIa-158V-G2FS(2-6) (human).
For experiment [12], the target named is FcγRIIIa-158V-HEK^WT (human).
Experiment [13] addresses FcγRIIIa-158V-Hybrid (human).
The target in experiment [14] is FcγRIIIa-158V-Monoantennae (human).
Experiment [15] has as its target FcγRIIIa-158V-Oligomannose (human).
Experiment [16] addresses biotinylated, recombinant, human FcγRIIIa-158F from SinoBiological (human) (UniProt P08637).
For experiment [17], the target named is biotinylated, recombinant, human FcγRIIIa-158V from SinoBiological (human).

FcγRIIIa-158F-CHO^WT (soluble FcγRIIIa, allotype 158F, from wild-type CHO) (human), sequence (P08637 17-208): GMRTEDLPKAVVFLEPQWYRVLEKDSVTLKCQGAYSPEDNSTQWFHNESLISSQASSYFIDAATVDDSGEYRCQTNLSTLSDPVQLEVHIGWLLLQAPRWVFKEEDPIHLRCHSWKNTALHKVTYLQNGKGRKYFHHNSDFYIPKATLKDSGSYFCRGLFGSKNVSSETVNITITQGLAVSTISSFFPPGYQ
FcγRIIIa-158F-Hybrid (human), sequence (P08637 17-208): as above
FcγRIIIa-158F-HEK^WT (human), sequence (P08637 17-208): as above
FcγRIIIa-158F-G2FS(2-3) (human), sequence (P08637 17-208): as above
FcγRIIIa-158F-G2FS(2-6) (human), sequence (P08637 17-208): as above
FcγRIIIa-158F-Afucosylated (human), sequence (P08637 17-208): as above
biotinylated, recombinant, human FcγRIIIa-158F from SinoBiological (human), sequence (P08637 17-208): as above
FcγRIIIa-158F-Monoantennae (human), sequence (P08637 17-208): as above

A word on the pKd: it is the negative decadic logarithm of the Kd, by convention in mol/L. With IgG1-G2FS(2-3) (mAb SO57) (antibody), the pKd in [1] is 5.92; in experiment [2], 5.72; in experiment [3], 5.87; in experiment [4], 6.08; in [5], 5.92; in [6] it was 5.91. In addition, the pKd in experiment [7] is 5.87; in experiment [8], 6.56; in [9] it was 6.54; in experiment [10] it was 6.41; in experiment [11], 6.59; in experiment [12], 6.59. In addition, the negative-log Kd (pKd) is 6.52 in experiment [13]; 6.51 in experiment [14]; 6.84 in [15]; 6.02 in experiment [16]; 6.56 in experiment [17].
